Experimental data as given in patent CN113150127A.

Target: HBV表面抗原蛋白 (HBsAg) (Hepatitis B virus)
Test: SPR (Biacore 3000), antibody captured through AHC on a CM5 chip, HBsAg as analyte from 40 nM to 0 nM in 2-fold dilutions

Kd: 6.12 nM
B1: 抗HBsAg单克隆抗体5G7-2 (antibody, V domains shown)
VH: EVQLQQSGPELVKPGASVKIYCKASGYTFTNARSTWVKQSHGKSLEWIGWINFKINNDGSATPFKGKATLTVDKSSSTAYMELRSLTSEDSAVYYCSRAGRFKLMDWGQGTLVTVSA
VL: DIVMTQSPASLAMSLGKRATISCGGCARTPLLWICNGKWYQQKPGQPPKLLIYLASNKFGGVPARFSGSGSGADFTLTIDPVEGDDVALYYCQQDWNTIYTFGGGTKMEIK
